Data reported in the nanobody polyreactivity screen of Harvey et al. (2022).

experiment: yeast display, Sf9 membrane polyspecificity reagent, FACS + sequencing; frameworks hold sequencing errors
Summary of the method: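 In a synthetic yeast display library (Saccharomyces cerevisiae BJ5465), nanobody expression was induced with galactose for 36–48 hours. FACS gates were set low and high (top ~1%) using anti-HA fluorescence for expression and streptavidin fluorescence for binding of the Sf9 membrane reagent. Each polyreactivity label is drawn from the gate of origin.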

| Sequence | polyreactivity (PSR sort gate) |
| --- | --- |
| QVQLVESGGGLVQAGGSLRLSCAASGLTLYRYALGWYRQAPGKERELVAAISWGGGSTYYADSVKGRFTISRDNAKNTVYLQMNSLKPEDTAVYYCAAGRLLYIPRYYYWGQGTQVTVSS | high polyreactivity |
| QVQLVESGGGLVQAGGSLRLSCAASGLTSVRNAMGWYRQAPGKERELVAGISWSGGRTYYADSVKGRFTISRDNAKNTVYLQMNSLKPEDTAVYYCNKVRAYYTQEGSWGQGTQVTVSS | high polyreactivity |
| QVQLVESGGGLVQAGGSLRLSCAASGLYAMGWYRPAPGKERELVADINSSGGSITNYADSVKGRFTISRDNAKNTVYLQMISLKPEDTAVYYCAKRGPYFAYDYWGQGTQVTVSS | low polyreactivity |
| QVQLVESGGGLVQAGGSLRLSCAASGMGWYRQAPGKERELVATITTGGTYADSVKGRFTISRDNAKNTVYLQMNSLKPEDTAVYYCAADGLGSVYYLRYNYWGQGTQVTVSS | low polyreactivity |
| QVQLVESGGGLVQAGGSLRLSCAASGMIFKYYVMGWYRQAPGKERELVAAIRWSGGITSYADSVKGRFTISRDNAKNTVYLQMNSLKPEDTAVYYCAVAHSRLRTAYTFSVQRYDYWGQGTQVTVSS | low polyreactivity |
| QVQLVESGGGLVQAGGSLRLSCAASGMTFTDYAMGWYRQAPGKERELVAAISRSGGTTYYADSVKGRFTISRDNAKNTVYLQMNSLKPEDTAVYYCAARVTPGRNGGGYWGQGTQVTVSS | high polyreactivity |
| QVQLVESGGGLVQAGGSLRLSCAASGNAMGWYRQAPGKERELVASINRSGGRTYFADSVKGRFTISRDNAKNTVYLQMNRLIPEDTAVYYCAKGPRGADLTHGAYVEMEYWGQGTQVTVSS | low polyreactivity |
| QVQLVESGGGLVQAGGSLRLSCAASGNAMGWYRQAPGKERELVASINRSGGSTYYADSVKGRFTISRDNAKNTVYLQMNSLIPEDTAVYSCNTDVGATVEDDYWGQGTQVTVSS | low polyreactivity |
| QVQLVESGGGLVQAGGSLRLSCAASGNAMGWYRQAPGNERELVAAITRRGGSTYYADSVKGRFTISRDNAKNTVYLQMNSLKPEDTAVYYCAADNPSYNLWYGYWGQGTQVTVSS | low polyreactivity |
| QVQLVESGGGLVQAGGSLRLSCAASGNIFATYAMGWYRHAPGKEREFVAAITSRGGGTFYADSVKGRFTISRDNAKNTVYLQMNSLKPEDTAVYYCAARRSGHWLYGYWGQGTQVTVSS | high polyreactivity |
| QVQLVESGGGLVQAGGSLRLSCAASGNIFCINTMGWYRQAPGKERELVAAIDASDGSTYYADSVKGRFTISRDNAKNTVYLQMNSLKPEDTAVYYCATRSGYDSVYYFYTLWYYYWGQGTQVTVCS | low polyreactivity |
| QVQLVESGGGLVQAGGSLRLSCAASGNIFDEYTMGWYRQAPGKERELVAAINSGGSTDYADSVKGRFTISRDNAKNTVYLQMNSLKPEDTAVYYCARDVWPTKIQLQPGYGRGEYWGQGTQVTVSS | low polyreactivity |
| QVQLVESGGGLVQAGGSLRLSCAASGNIFDEYTMGWYRQAPGKERELVAAISWRGGSTYYADSVKGRFTISRDNAKNTVYLQMNSLKPEDTAVYYCNKAYPADYDYWGQGTQVTVSS | low polyreactivity |
| QVQLVESGGGLVQAGGSLRLSCAASGNIFDEYTMGWYRQAPGKERELVAGISWSGSHTYYADSVKGRFTISRDNAKNTVYLQMNSLKPEDTAVYYCIADSYPDYTGPGLDWYDYWGQGTQVTVSS | low polyreactivity |
| QVQLVESGGGLVQAGGSLRLSCAASGNIFDGYAMGWYRQAPGKERELVAAISLSGGSTNYADSVKGRFTISRDNAKNTVYLQMNSLKPEDTAVYYCNARNWYYEGDYWGQGTQVTVSS | high polyreactivity |
| QVQLVESGGGLVQAGGSLRLSCAASGNIFDHYAMGWYRQAPGKEREMVAAISSGGSTSYADSVKGRFTITRDNAKTTVYVQMNCLKPEDTAVYYCAAESFVQYKSPKWVHRYDSWGQGTQVTVSS | low polyreactivity |
| QVQLVESGGGLVQAGGSLRLSCAASGNIFDRNAMGWYRHAPGKESELVAAISRSGGRTYYADSVKGRFTISRDNAKNTVYLQMNSLKPEDTAVYYCNRRYRNYSSAKYDYWGQGTQVTVSS | high polyreactivity |
| QVQLVESGGGLVQAGGSLRLSCAASGNIFDSYAMGWYRQAPGKERELVAAISFSGGNTYYADSVKGRFTISRDNAKNTVYLQMNSLKPEDTAVYYCAADYFAVTPYRAADVAEDYWGQGTQVTVSS | low polyreactivity |
| QVQLVESGGGLVQAGGSLRLSCAASGNIFDTYVMGWYRQAPGKERELVAAITSDGGTYYADSVKGRFTISRDNAKNTVYLQMNSLKPEDTAVYYCAADTYYYPIHDYWGQGTQVTVSS | low polyreactivity |
| QVQLVESGGGLVQAGGSLRLSCAASGNIFESYCMGWYRQAPGKERELVATINTSSGSTYYADSVKGRFTISRDTAKNTVYLQMNSLKPEDTAVYYCAAEWYPYPWGYGYWGQGTQVTVSS | low polyreactivity |
| QVQLVESGGGLVQAGGSLRLSCAASGNIFESYGMGWYRQAPGKERELVATINTSSGSTYYADSVKGRFTISRDNAKNSVYVQMNSLKPEDTAVYYCAAEWYPYPWGYGYWGQGTQVTVSS | low polyreactivity |

| Sequence | polyreactivity (PSR sort gate) |
| --- | --- |
| QVQLVESGGGLVQAGGSLRLSCAASGNIFGDNAMGWYRQAPGKERELVAAITRIDGNTYYADSVKGRFTISRDNAKNTVYLQMNSLKPEDTAVYYCATDEPVGRYQHNYYWGQGSQVTVSS | low polyreactivity |
| QVQLVESGGGLVQAGGSLRLSCAASGNIFGFYTMGWNRQAPGKERELVAAIRSRGGSTNYADSVKGRFTISRDTAKNTVYLQMNSLKPEDTAVYYCNKDGTWLARAVTYADFDYWGQGTQVTVSS | low polyreactivity |
| QVQLVESGGGLVQAGGSLRLSCAASGNIFGIYAMGWYRQAPGKERELVAAIRGRGASTYYADSVKGRFTISRDNAKNTVYLQMNSLKPEDTAVYYCAVDVPLSRYWWRRTYDYWGQGTQVTVSS | low polyreactivity |
| QVQLVESGGGLVQAGGSLRLSCAASGNIFGKNVMGWYRQAPGKEREFVAAITSRGGRTNYADSVKGRFTISRDNAKNTVYLQMNSLKPEDTAVYYCATRYKSPSFDYWGQGTQVTVSS | high polyreactivity |
| QVQLVESGGGLVQAGGSLRLSCAASGNIFGVYAMGWYRQAPGKERELVAAITSGGTSTSYADSVKGRFTISRDNAKNTVYLQINSLKPEDTAVYYCATESSGKLSEYAYWGQGTQVTVSS | low polyreactivity |
| QVQLVESGGGLVQAGGSLRLSCAASGNIFGYYVMGWYRQAPGKERELVAGISSGDSTDYADSVKGRFTISRDNAKNTVYLQMNSLKPEDTAVYYCNADWNPTERWFYWYTPLGYDYWGQGTQVTVSS | low polyreactivity |
| QVQLVESGGGLVQAGGSLRLSCAASGNIFITNAMGWYRQAPGKERELVADISFSGGSTNYADSVKGRFTISRDNAKNTVYLQMNSLKPEDTAVYYCAARALASVSAHKYDNWGQGTQVTVST | low polyreactivity |
| QVQLVESGGGLVQAGGSLRLSCAASGNIFIYNAMGWYRQAPGQERELVAAISVSGGDTYYADSVKGRFTISRDNAKNTVYLQMNSLKPEDTAVYYCKASYVLTGQRYGYWGQGTQVTVSS | low polyreactivity |
| QVQLVESGGGLVQAGGSLRLSCAASGNIFKVNAMGWYRQAPGKERELVAGISWSGGSTYYADSVKGRFTISRDNAKNTVYLQMNSLKPEDTAVYYGNVGRGYWGYLYDYWGQGTQGTVSS | low polyreactivity |
| QVQLVESGGGLVQAGGSLRLSCAASGNIFKYYTMRWYRQAPGKERELVAAITSGGRTNYADSVKGRFTISRDNAKNTVYLQMNSLKPEDTAVYYCAAYDVIYSQGFDYWGQGTQVTVSS | low polyreactivity |
| QVQLVESGGGLVQAGGSLRLSCAASGNIFLYYAMGWYRQAPGKERELVADIDSSGASTYYADSVKGRFTMSRDNAKNTVYLQMNSLKPEDTAVYYCAAEFHWWYAGYDYGYWGQGTQVTVSS | low polyreactivity |
| QVQLVESGGGLVQAGGSLRLSCAASGNIFNLYAMGWYRQAPGKERELVAAIRGSGSTYYADSVKGRFTISRDNAKNTVYLQMNSLKPEDTAVYYCAAGISGHYYWGQGTQVTVSS | high polyreactivity |
| QVQLVESGGGLVQAGGSLRLSCAASGNIFNTYAMGWYRQAPGKERELVAVISSRCGRTYYADSVKGRFTISRENAKNTVYLQMNSLKPEDTAVYYCAAGKHVTFSYEYRMDYWGVGTQVTVSS | low polyreactivity |
| QVQLVESGGGLVQAGGSLRLSCAASGNIFPDYAMGWYRQAPGKERELVAAISSSGSSTYYADSVKGRFTISRDNAKNTVYLQMNSLKKEDTAVYYCATRVYLPTFYIRDTQYYYWGQGTQVTVSS | low polyreactivity |
| QVQLVESGGGLVQAGGSLRLSCAASGNIFPMNAMGWYIEAPGKERELVAAISYSGTSTYYADSVKGRFTISRDKAKNTVYLQMNSLKPEDTAVYYCAARVQRLNLGDYNYWGQGTQVTVSS | low polyreactivity |
| QVQLVESGGGLVQAGGSLRLSCAASGNIFPRYAMGWYRQAPGKERELVARISSGGSTDYADSVKGRFTISRDNAKNTVYLQMNSLKPEDTAVYYCAAEYYSQTVNYRRVVGYGYWGQGTQVTVSS | high polyreactivity |
| QVQLVESGGGLVQAGGSLRLSCAASGNIFPYYTLGWYRKAPGKEREWVAAITIGGSTYYADSEKGRFTISRDNAKNTVYLQMNSLKPEDTAVYYCAARSRYYDTRFEYWGQGTQVTVSS | low polyreactivity |
| QVQLVESGGGLVQAGGSLRLSCAASGNIFPYYTMGWYRQAPGKERELVAAISSSGSTYYADSVKGRFTISRDNAKNTVYLQMNSLKPEDTAVYYCAARLYPYGWYDYWGQGTQVTVSS | high polyreactivity |
| QVQLVESGGGLVQAGGSLRLSCAASGNIFRRYAMGWYREAPGKERELVAAISRGGTRTYYADSVKGRFTISRDNAKNTVYLQMNSLKPEDTAVYYCNAEVNTNYRIADYDYWGQGTQVTVSS | high polyreactivity |
| QVQLVESGGGLVQAGGSLRLSCAASGNIFRVYDMGWYRQAPGKERELVPVIRWSSGRTYYADSVKGRFTISRDNAKNTVYLQMNSLKPEDTAVYYCATKLWRVPRNSHYDSYEYWGQGTQVTVSS | high polyreactivity |
